Source: article PMC4278837, “A Cyclic Peptidic Serine Protease Inhibitor: Increasing Affinity by Increasing Peptide Flexibility” (PLoS ONE, 2014)
Bridge positions count the residues as written; N and C are the ends. Ends that are not written are not given here.

Columns and labels:
Assay in all cases: enzyme inhibition (steady state, chromogenic substrate S-2444); about 2 nM enzyme (purified or conditioned medium of transfected cells) pre-incubated 15 min with varied peptide in HBS (10 mM HEPES pH 7.4, 140 mM NaCl) with 0.1% BSA at 37°C; substrate about KM; fit for competitive inhibition; highest peptide concentration 400 µM
muPA-K143A (murine) = biological target: muPA-K143A (murine)
muPA-K41A (murine) = biological target: muPA-K41A (murine)
muPA-V213T (murine) = biological target: muPA-V213T (murine)
muPA-Y99A (murine) = biological target: muPA-Y99A (murine)
muPA-S190A (murine) = biological target: muPA-S190A (murine)

Row | Binder | Ki (muPA-K143A (murine)) [µM] | Ki (muPA-K41A (murine)) [µM] | Ki (muPA-V213T (murine)) [µM] | Ki (muPA-Y99A (murine)) [µM] | Ki (muPA-S190A (murine)) [µM]
1 | CPAYSRYLDC (disulfide 1-10 (inferred)) [mupain-1] | 4.88 | 4.29 | 0.246 | 26 | 1.6
2 | CPAYSRYLAC (disulfide 1-10 (inferred)) [Mupain-1 D9A] | 4.34 | 0.27 | 0.373 | 27.2 | 3.02
